Test results from patent publication US20220259322A1.

What was measured:
[1] = biological target: 78-kDa glucose-regulated protein (GRP78) (UniProt P11021); test: flow cytometry, irradiated A549 cells, % of positive cells, 4PL fit
[2] = biological target: 78-kDa glucose-regulated protein (GRP78) (UniProt P11021); test: flow cytometry, irradiated A549 cells, gMFI minus secondary only, one site-specific binding fit
[3] = biological target: recombinant GRP78 full length protein (UniProt P11021); test: Biacore, recombinant full length GRP78, scFv1171-Fc from 500 nM in two-fold dilutions
[4] = biological target: recombinant GRP78 full length protein (UniProt P11021); test: Biacore, recombinant full length GRP78, scFv1183-Fc from 500 nM in two-fold dilutions

Chain of recombinant GRP78 full length protein (P11021 19-654 limits assumed): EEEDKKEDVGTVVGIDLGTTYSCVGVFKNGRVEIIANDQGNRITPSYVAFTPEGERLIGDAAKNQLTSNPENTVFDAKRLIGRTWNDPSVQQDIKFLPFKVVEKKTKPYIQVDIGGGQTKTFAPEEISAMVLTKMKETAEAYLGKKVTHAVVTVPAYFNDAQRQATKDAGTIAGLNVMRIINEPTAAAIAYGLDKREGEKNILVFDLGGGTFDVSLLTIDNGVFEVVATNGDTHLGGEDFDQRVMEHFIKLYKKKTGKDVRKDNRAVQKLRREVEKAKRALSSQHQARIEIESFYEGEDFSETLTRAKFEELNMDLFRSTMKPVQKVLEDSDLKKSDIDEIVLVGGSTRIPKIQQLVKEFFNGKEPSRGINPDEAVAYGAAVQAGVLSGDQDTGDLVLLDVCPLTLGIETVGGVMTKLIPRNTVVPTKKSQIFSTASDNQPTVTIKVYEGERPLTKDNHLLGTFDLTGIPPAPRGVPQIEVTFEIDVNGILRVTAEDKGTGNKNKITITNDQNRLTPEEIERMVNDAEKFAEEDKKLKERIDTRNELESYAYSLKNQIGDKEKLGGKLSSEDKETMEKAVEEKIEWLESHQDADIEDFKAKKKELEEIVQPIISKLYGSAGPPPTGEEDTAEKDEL
Chain of 78-kDa glucose-regulated protein (GRP78) (P11021 19-654 limits assumed): as above

B1: anti-GRP78 scFv-Fc 1171 (Fc fusion, part only; not given: Linker, domain order, Fc, not shown: another chain or arm of the molecule; a dimerising Fc or GST; small tags and cut ends)
VH: QVQLVQSGAEVKKPGSSVKVSCKSSGGTFSNPVISWVRQAPGQGLEWMGGIITMFGTTYYGNSVRGRFIVSRDNSKNMLFLQMNSLRAEDTAVYYCAKDPPMFDYWGQGTLVTVS
VL: DIQLTQSPSSLSASVGDRVTITCRASQSISSYLNWYQQKPGKAPKLLIYDASNLETGVPSRFSGSGSGTDFTFTISSLQPEDIATYYCQQYDNLLALTFGGGTKVDIK
[1]
  EC50: 16.8 nM
[2]
  Kd: 18.7 nM
[3]
  Kd: 4.77 nM
  koff: 0.00324 s⁻¹
  kon: 679000 M⁻¹ s⁻¹

B2: anti-GRP78 scFv-Fc 1183 (Fc fusion, part only; not given: Linker, domain order, Fc, not shown: another chain or arm of the molecule; a dimerising Fc or GST; small tags and cut ends)
VH: QMQLVQSGAEVKKPGSSVKVSCKASGGTFSSYAISWVRQAPGQGLEWMGWISAYNGNTNYAQKLQGRVTMTTDTSTSTAYMELRSLRSDDTAVYYCARDPPLRYFDWFRGSDWFDPWGQGTLVTVS
VL: NFMLTQPHSVSESPGKTVTISCTRSSGSIASNYVQWYQQRPGSSPTTVIYEDNQRPSGVPDRFSGSIDSSSNSASLTISGLKTEDEADYYCQSYDSTNGVFGGGTKLTVL
[4]
  Kd: 8.4 nM
  koff: 0.00793 s⁻¹
  kon: 944000 M⁻¹ s⁻¹
